Data on 83 variants can be found in the RNAGym collection of RNA variant scans (doi:10.1073/pnas.2313332121).

B1: TPR t1 (parent)
chain: GACCAAUCUGCCCUCAGAGCUCGAGAACAUCUUCGGAUGCAGAGGAGGCAGGCUUCGGUGGCGCGAUAGCGCCAACGUCCUCAACCUCCAAUGCAUCCCACCACAUGAUGAUGCCUGAAGAGCCUUGGUUUUUUG

Variants of B1 are the subject of the data set. Briefly: polymerase ribozyme fitness, log enrichment relative to wild type (log ratio); higher = more active; in vitro selection for triplet polymerase activity. The procedure, abridged: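 In triplicate, a single round of in vitro selection was run on each mutant library, PCR-built and transcribed, covering one subunit of a heterodimeric triplet polymerase ribozyme. Frozen incubation at −7 °C followed annealing with a biotinylated primer, partner subunit and triplets, and extended constructs were then gel-excised, streptavidin-captured and taken through RT-PCR. Fitness is the logarithm of genotype enrichment over wild-type enrichment, from inverse-variance-weighted replicate averages of Illumina-sequenced inputs and outputs. […] only genotypes with ≥10 input reads and ≥1 read per output were kept.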
On to C40U U96G C115G A118U G122U, for which the “polymerase ribozyme fitness (log ratio)” value is -3.71. C88U A119G: the “polymerase ribozyme fitness (log ratio)” value was determined as 1.04. To A26U C72U C123U belongs -2.2. Consider C11U A37U U55C, for which the “polymerase ribozyme fitness (log ratio)” value is -1.28. Turning to G61C, the “polymerase ribozyme fitness (log ratio)” value was -1.63. As to G39A C79A C114G A121C, the “polymerase ribozyme fitness (log ratio)” value was -4.29.

Turning to C53U U96C, the “polymerase ribozyme fitness (log ratio)” value is -0.173. On to C13G G51C G61C C104U G120C, for which the “polymerase ribozyme fitness (log ratio)” value was -6.03. Consider C12G C82U A105U U106A U109G, for which the “polymerase ribozyme fitness (log ratio)” value is -1.76. On to A6C C12U A46G A118G, for which the “polymerase ribozyme fitness (log ratio)” value was determined as 0.142. For G10U A18U C70U, the “polymerase ribozyme fitness (log ratio)” value is -4.05. In the case of A6G, the “polymerase ribozyme fitness (log ratio)” value turned out to be 0.335. For the variant C13U U126A, the “polymerase ribozyme fitness (log ratio)” value was -1.64.

Turning to C53A G120U G122C U125A, the “polymerase ribozyme fitness (log ratio)” value was -0.563. To C72G U78C belongs -0.909; to G25U A37U, -5.61. In the case of C22G G52C C79U, the “polymerase ribozyme fitness (log ratio)” value is -4.14. Regarding C13U C72U C94G, the “polymerase ribozyme fitness (log ratio)” value is -1.35. In the case of C62G U112G it was -1.83. For the variant A2C A5C C62A G128C, the “polymerase ribozyme fitness (log ratio)” value is -2.75. For the variant C97A, the “polymerase ribozyme fitness (log ratio)” value is -4.67. To C13A C97A belongs -5.11; to C72U U78G C115U U116C, -2.31. In the case of C28A U78C A91U U106A G110U, the “polymerase ribozyme fitness (log ratio)” value was found to be 0.263. As for A24U A41G A43C U96A C102U A111U, the “polymerase ribozyme fitness (log ratio)” value was -6.49. In the case of C8G G57A C73U U78A A91U it was -1.7; in that of C13U C40U A43U C72G A84G C89G, -6.24; in that of U78C A83C C102U, -1.78.

With C13A C72G C82A C94U G110A, the “polymerase ribozyme fitness (log ratio)” value was -3.05. In the case of G36C U59A G69C C88A C101A, the “polymerase ribozyme fitness (log ratio)” value is -2.89.

As for A29U G71A G135C, the “polymerase ribozyme fitness (log ratio)” value is -2.1. In the case of G71A C94U U96A it was -2.05; in that of G57A U96G A105U C123G G127A, -5.35; in that of A37C, -0.431. Regarding C20G C62U, the “polymerase ribozyme fitness (log ratio)” value is -3.29.

For G10A C12U G19U C85U C123U, the “polymerase ribozyme fitness (log ratio)” value is -1.68. Regarding G57U C82G A95G A111U C123U, the “polymerase ribozyme fitness (log ratio)” value is -5.66.

Consider C123G U129A, for which the “polymerase ribozyme fitness (log ratio)” value was -1.13.

For the variant C56G C88U, the “polymerase ribozyme fitness (log ratio)” value was -0.184. In the case of G52C A95G G120C U125A, the “polymerase ribozyme fitness (log ratio)” value was -0.335. On to G42C C94A, for which the “polymerase ribozyme fitness (log ratio)” value was -2.23.

Consider C15A G45U A84U C123U, for which the “polymerase ribozyme fitness (log ratio)” value is -2.4. Regarding C8A G47U C73G C82U, the “polymerase ribozyme fitness (log ratio)” value is -1.82. As to C73U A95U A111U, the “polymerase ribozyme fitness (log ratio)” value was -2.76. On to C40A C56U U87A, for which the “polymerase ribozyme fitness (log ratio)” value is -1.61.

C101A U132A: the “polymerase ribozyme fitness (log ratio)” value was -0.824.

As to C12A A74G, the “polymerase ribozyme fitness (log ratio)” value was -0.0689. Turning to U55A C85U, the “polymerase ribozyme fitness (log ratio)” value is -1.1.

Regarding G25C C97U C104A U109G, the “polymerase ribozyme fitness (log ratio)” value is -6.31.

Turning to A18G G23A C53U U59C C79A G117C U133C, the “polymerase ribozyme fitness (log ratio)” value is -5.37.

Turning to G45A C72A G117U, the “polymerase ribozyme fitness (log ratio)” value is -2.7. In the case of U7C A74G G110A A118U it was -0.453; in that of A95G C98U G113A A118G, -3.57; in that of C22G C56A C73U, -4.49.

Turning to C4U G51C, the “polymerase ribozyme fitness (log ratio)” value is -2.89. For C56U C72A G77A C97A, the “polymerase ribozyme fitness (log ratio)” value is -3.63. Turning to A2C U7G G57U G60U, the “polymerase ribozyme fitness (log ratio)” value was -0.82. Regarding A41C C53U, the “polymerase ribozyme fitness (log ratio)” value was -0.83. As to A43G C49U U59G C114U, the “polymerase ribozyme fitness (log ratio)” value is -2.13.

In the case of U81A U112A, the “polymerase ribozyme fitness (log ratio)” value is 0.19. For G36U C80A, the “polymerase ribozyme fitness (log ratio)” value is -3.93. Consider G17A U78C, for which the “polymerase ribozyme fitness (log ratio)” value was -3.04. In the case of C3U G61U C85U C101A, the “polymerase ribozyme fitness (log ratio)” value is -2.34. To C53U C80A belongs -4.94; to G51A C89U U130A, -3.01; to G47U U116C, -1.74. As for G42C C88G, the “polymerase ribozyme fitness (log ratio)” value is -3.51.

As to G71A U92A A121U, the “polymerase ribozyme fitness (log ratio)” value was -2.31. As to A66U A83U, the “polymerase ribozyme fitness (log ratio)” value was -1.4. Regarding C12A G47C C70U, the “polymerase ribozyme fitness (log ratio)” value is -0.753. In the case of C40A G61A C73U C88U G113U, the “polymerase ribozyme fitness (log ratio)” value is -6.64. A27C A74C: the “polymerase ribozyme fitness (log ratio)” value is -3.6. For A41U C72G A90C, the “polymerase ribozyme fitness (log ratio)” value was -2.3. In the case of C40A G45U A90G, the “polymerase ribozyme fitness (log ratio)” value was -1.17.

A2U U54C C115A: the “polymerase ribozyme fitness (log ratio)” value was -2.65. In the case of G48A C85G C89A U96C, the “polymerase ribozyme fitness (log ratio)” value was -2.26. In the case of C85U A108U C123G, the “polymerase ribozyme fitness (log ratio)” value is -6.32.

For the variant G42A G110A, the “polymerase ribozyme fitness (log ratio)” value is -2.55. Turning to G44A U78C, the “polymerase ribozyme fitness (log ratio)” value was -1.33. Take A2C G110A A121C: the “polymerase ribozyme fitness (log ratio)” value was -2.66. Take U32C G63U G113U: the “polymerase ribozyme fitness (log ratio)” value was -4.99.

Take C40U G60A: the “polymerase ribozyme fitness (log ratio)” value is -0.683. On to A16C, for which the “polymerase ribozyme fitness (log ratio)” value was -2.19.
